The target of test [1] is T1, FtsL, full-length (Escherichia coli divisome transmembrane protein) (Escherichia coli, UniProt P0AEN4 1-121).
T1 sequence (looked up): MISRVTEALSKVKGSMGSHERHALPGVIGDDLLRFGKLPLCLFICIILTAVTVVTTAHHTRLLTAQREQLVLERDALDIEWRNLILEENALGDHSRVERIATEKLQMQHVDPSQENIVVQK
The test is described as follows: pull-down.

For test [2], the target named is FtsQ, full-length (Escherichia coli divisome transmembrane protein) (Escherichia coli, UniProt P06136 1-276). The test is described as follows: pull-down.
FtsQ, full-length (Escherichia coli divisome transmembrane protein), sequence (P06136 whole entry): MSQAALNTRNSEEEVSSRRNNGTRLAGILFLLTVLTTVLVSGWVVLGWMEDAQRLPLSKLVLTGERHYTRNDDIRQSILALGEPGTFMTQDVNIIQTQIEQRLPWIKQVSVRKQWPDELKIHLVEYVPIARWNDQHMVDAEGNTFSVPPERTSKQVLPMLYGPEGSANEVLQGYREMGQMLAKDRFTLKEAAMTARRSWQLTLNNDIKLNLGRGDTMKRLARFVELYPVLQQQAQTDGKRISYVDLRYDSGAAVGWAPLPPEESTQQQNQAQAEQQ

B1: FtsB, full-length, His-tagged (Escherichia coli divisome transmembrane protein) (natural protein, UniProt P0A6S5 1-103, looked up)
chain: MGKLTLLLLAILVWLQYSLWFGKNGIHDYTRVNDDVAAQQATNAKLKARNDQLFAEIDDLNGGQEALEERARNELSMTRPGETFYRLVPDASKRAQSAGQNNR
In the case of B1, the binding result in test [1] and in test [2] was “binds” each time.

(Values after PMC9352969 (The Journal of Biological Chemistry, 2022).)
